From patent US20250381293A1, “PEPTIDES AND MAGNETIC PARTICLE-PEPTIDE CONJUGATES FOR PREVENTION OR TREATMENT OF GLAUCOMA” (THE GOVERNORS OF THE UNIVERSITY OF ALBERTA, priority 2022, published 2025)

How the values were obtained:
hTM cells [1] = experiment: Live/dead cell viability assay on hTM monolayers; assay type: cell-based; settings: free peptide solution, 1 mM; mean±1 SD, n≥3
Experimental: Primary human trabecular meshwork (hTM) cells were obtained from ScienCell Research Laboratories (Carlsbad, CA), and maintained in TMCM medium (ScienCell, no. 6591). Primary cell culture was passaged according to the manufacturer's instructions. Passage three cells were seeded on tissue culture plates coated with gelatin and media were refreshed every 2-3 days. These monolayer cultures were used in subsequent experiments upon reaching 95-100% confluency.
Cell viability was further assayed using LIVE/DEAD® viability/cytotoxicity kit (Molecular Probes). Monolayers of hTM cells were treated in triplicates with peptides alone in solution (1 mM) and in conjugation with MPs (100 μg). Cell viability was then assessed according to the manufacturer's protocol. The kit is based on calcein AM/ethidium homodimer-1 (EthD-1) system, where calcein AM detects cellular esterase activity of live cells and EthD-1 stains nuclei of dead cells. A similar live/dead assay was used to investigate the effect of MP-peptide conjugates on the viability of hTM cells in the presence of the rotating magnetic field. […] The viability of hTM cells was then assessed as described above. […] The cells were treated with the rotating magnetic field for 10 min and then analyzed using live/dead assay as described before. […]

XFS materials = experiment: Ex vivo targeting of Cy5-labeled phage-displayed peptides on exfoliative human lens capsules; assay type: binding; settings: 1 hr, 37° C., human aqueous humor/BSS; fluorescence microscopy
Experimental: Amplified phages (1×10^11 pfu) were resuspended in 0.3 M NaHCO3 (pH 8.6) containing 10 μg Cy5 dye and incubated for 2 hr at room temperature in the dark. Subsequent to phage/fluorophore incubation, 40 μl of 10 mM lysine was added to interact with remaining free Cy5 dye molecules in the solution. The volume of the reaction mixture was subsequently brought up to 1 ml with PBS buffer, and the phages were purified with two rounds of 20% (w/v) polyethylene glycol-8000, 2.5 M NaCl precipitation. The labeled phages resuspended in BSS solution.
Fluorescently labeled phages carrying identified targeting peptides as well as wild-type phages without peptide-encoding inserts were incubated with exfoliative human lens capsules in a 100-μl solution containing equal volumes of human aqueous humor fluid and BSS solution. The incubation was allowed to continue for 1 hr at 37° C. After serially washing with BSST buffer (0.1, 0.3%), three times each, the lens capsules were mounted on microscope slides and were examined under an Olympus IX81 inverted fluorescence microscope (Olympus Corporation, Tokyo, Japan). The location of XFS materials on the surface of the lens capsule was confirmed in bright-field mode prior to fluorescence imaging.

hTM cells [2] = experiment: DNA fragmentation analysis (apoptosis); assay type: cell-based, human; settings: free peptide solution, 24 hr (0.5 mM, elsewhere in the source)
Experimental: Effect of peptide-particle conjugates and peptide solutions on the induction of apoptotic DNA fragmentation was analyzed in hTM cells. […] Cells were recovered from wells using a cell scraper. DNA was isolated and purified using DNeasy blood and tissue kit (Qiagen). Extracted DNA molecules from control and treated hTM cells were subjected to 2% agarose gel electrophoresis and visualized by SYBR green staining.

Sequence	% of live cells (hTM cells [1]) [%]	binding of Cy5-labeled phages to XFS materials on lens capsule (XFS materials)	apoptotic chromosomal DNA fragmentation (hTM cells [2])
IPLLNPGSMQLS [p-IPL]	99.00 ± 0.37	specific binding to XFS materials	chromosomal DNA remained intact
LPSYNLHPHVPP [p-LPS]	99.12 ± 0.94	specific binding to XFS materials	chromosomal DNA remained intact
